Measurements as given in US9144594B2, “Cathepsin L mediated diseases and associated methods and products” (University of Miami, priority 2005, dated 2015).

What was measured:
podocytes = experiment: Actin stress fiber staining in cultured podocytes; assay type: cell-based, mouse; conditions: overexpression in cultured podocytes
Excerpt: This study examined the role of dynamin in actin dynamics of podocytes. An adenoviral expression system was utilized to obtain expression of various dynamin mutants with more than 90% infection efficiency in cultured differentiated mouse podocytes and analyzed the organization of the actin cytoskeleton, their migratory and endocytotic behavior (FIG. 1). […] This type of actin rearrangement in cultured podocytes is resembling actin rearrangement in damaged podocytes during proteinuria in situ (Smoyer and Mundel, 1998). […] Thus, the consequence on actin dynamics in podocytes was examined when dynamin is hyperactive by expressing known dominant activators, dynK694A and dynR725A (SEQ ID NO.4). Both mutants are predicted to live longer in the GTP-bound form. […] To further examine this surprising phenotype in a biological context, motility assays were performed next using a modified Boyden Chamber assay.
Since podocyte FP effacement is primarily driven by the rearrangement of the actin cytoskeleton (Asanuma et al., 2006), actin morphology was examined in cultured podocytes expressing different dynamin mutants. Podocytes were infected with various dynamin constructs using an adenoviral expression system that enables greater than 90% efficiency of infection. The experiments were performed using dyn1 (FIG. 22) as well as dyn2, with identical results. […] Thus, treatments which abolish actin stress fibers in cultured podocytes cause proteinuria in mice. […] Consistent with this notion, the deleterious effects of LPS (which reduces stress fibers) on kidney function were ameliorated by expression of dynR725A (which induces stress fibers).
Podocytes were grown under non-permissive conditions to 70% confluence. Cells were washed twice with 1×PBS and infected with 1.2 ml of serum-free DMEM media containing 100 μl transactivator virus, 100 μl virus expressing dyn1 or dyn2. After 2 h of infection at 37° C., media containing virus was replaced with full DMEM. If cells were treated with LPS or PAN, 50 μg/ml of LPS or 50 μg/ml PAN was added at this point. 18-24 h post-infection, cells were detached using trypsin and processed either for subcellular fractionation or tested in the motility assays as described in (Reiser et al., J Biol Chem 279, 34827-34832 (2004)). When stated, 20 μM of Z-FF-FMK CatL specific inhibitor (Calbiochem, San Diego, Calif.) was added simultaneously with addition of LPS.

dynamin = experiment: Dynamin self-assembly, apparent affinity measured in vitro; assay type: biochemical
Excerpt: The fact that this significant decrease in the fluorescence lifetime of ECFP is statistically insignificant is due to high fluctuations of the lifetimes between different cells (high error bar in Table 3). This is most likely due to ability of dynK694A to overcome its assembly defect under certain circumstances as shown in vitro. The fact that ECFP-dynK694A has a faster lifetime than ECFP-dynI690K is in agreement with its less severe assembly defect measured in vitro (apparent affinity of dynK694A is ˜7-fold lower then dynWT, whereas it is unmeasurable for dynI690K).

B1: dynK694A: dominant activator dynamin mutant impaired in self-assembly (protein)
chain: MGNRGMEDLIPLVNRLQDAFSAIGQNADLDLPQIAVVGGQSAGKSSVLENFVGRDFLPRGSGIVTRRPLVLQLVNATTEYAEFLHCKGKKFTDFEEVRLEIEAETDRVTGTNKGISPVPINLRVYSPHVLNLTLVDLPGMTKVPVGDQPPDIEFQIRDMLMQFVTKENCLILAVSPANSDLANSDALKVAKEVDPQGQRTIGVITKLDLMDEGTDARDVLENKLLPLRRGYIGVVNRSQKDIDGKKDITAALAAERKFFLSHPSYRHLADRMGTPYLQKVLNQQLTNHIRDTLPGLRNKLQSQLLSIEKEVEEYKNFRPDDPARKTKALLQMVQQFAVDFEKRIEGSGDQIDTYELSGGARINRIFHERFPFELVKMEFDEKELRREISYAIKNIHGIRTGLFTPDMAFETIVKKQVKKIREPCLKCVDMVISELISTVRQCTKKLQQYPRLREEMERIVTTHIREREGRTKEQVMLLIDIELAYMNTNHEDFIGFANAQQRSNQMNKKKTSGNQDEILVIRKGWLTINNIGIMKGGSKEYWFVLTAENLSWYKDDEEKEKKYMLSVDNLKLRDVEKGFMSSKHIFALFNTEQRNVYKDYRQLELACETQEEVDSWKASFLRAGVYPERVGDKEKASETEENGSDSFMHSMDPQLERQVETIRNLVDSYMAIVNKTVRDLMPKTIMHLMINNTAEFIFSELLANLYSCGDQNTLMEESAEQAQRRDEMLRMYHALKEALSIIGDINTTTVSTPMPPPVDDSWLQVQSVPAGRRSPTSSPTPQRRAPAVPPARPGSRGPAPGPPPAGSALGGAPPVPSRPGASPDPFGPPPQVPSRPNRAPPGVPSRSGQASPSRPESPRPPFDL
actin stress fibers, in words (podocytes): did not dramatically change actin stress fibers | apparent affinity for self-assembly, fold lower than dynWT (dynamin): ~7 fold
